{"source": "paper PMC8745424", "key": {"[1]": {"target": "SARS-CoV-2 S-protein RBD (expressed in CHO cells) (SARS-CoV-2 (Wuhan-type)) (UniProt P0DTC2)", "experiment": "BLI", "conditions": "BLI (BLItz, streptavidin sensors, […]; RBD 50-200 nM): PBS, 0.55 mM MgCl2, 0.1 mg/mL BSA, 0.002% Tween-20, room temperature; binding-buffer pH not stated"}, "[2]": {"target": "SARS-CoV-2 S-protein RBD (expressed in P. pastoris) (SARS-CoV-2 (Wuhan-type)) (UniProt P0DTC2)", "experiment": "BLI", "conditions": "BLI (BLItz, streptavidin sensors, immobilized aptamer 200 nM; RBD 50-200 nM): PBS, 0.55 mM MgCl2, 0.1 mg/mL BSA, 0.002% Tween-20, room temperature …"}}, "data": [{"sequence": "ATCCAGAGTGACGCAGCACTGCGTAGGCGCGGCCAATGTGTAGGATTGCTCAGGTCTGCTGGACACGGTGGCTTAGTTTTTTTTTTT [CoV2-RBD-3-Biotin]", "values": [{"measurement": "Kd", "setting": "[1]", "value": 24, "unit": "nM"}, {"measurement": "Kd", "setting": "[2]", "value": 2, "unit": "nM"}]}, {"sequence": "ATCCAGAGTGACGCAGCAGGACTGCTTAGGATTGCGAAGCTGAGGAGCTCCCCCGCCTTGGACACGGTGGCTTAGTTTTTTTTTTT [CoV2-RBD-5-Biotin]", "values": [{"measurement": "Kd", "setting": "[1]", "value": 26, "unit": "nM"}, {"measurement": "Kd", "setting": "[2]", "value": 1.2, "unit": "nM"}]}, {"sequence": "ATCCAGAGTGACGCAGCAGTAGGGGGATTGGCTCCAGGGCCTGGCTGACGGTTGCACGTGGACACGGTGGCTTAGTTTTTTTTTTT [CoV2-RBD-6-Biotin]", "values": [{"measurement": "Kd", "setting": "[1]", "value": 10, "unit": "nM"}, {"measurement": "Kd", "setting": "[2]", "value": 1, "unit": "nM"}]}, {"sequence": "ATCCAGAGTGACGCAGCATCGAGTGGTGGGCTGGTCGGGTTTGGATTCCCTTAGATGCTGGACACGGTGGCTTAGTTTTTTTTTTT [CoV2-RBD-2-Biotin]", "values": [{"measurement": "Kd", "setting": "[1]", "value": 4.3, "unit": "nM"}, {"measurement": "Kd", "setting": "[2]", "value": 10, "unit": "nM"}]}, {"sequence": "ATCCAGAGTGACGCAGCATTTCATCGGGTCCAAAAGGGGCTGCTCGGGATTGCGGATATGGACACGTTTTTTTTTTT [CoV2-RBD-4-Biotin]", "values": [{"measurement": "Kd", "setting": "[1]", "value": 21, "unit": "nM"}, {"measurement": "Kd", "setting": "[2]", "value": 5.5, "unit": "nM"}]}, {"sequence": "CAGCACCGACCTTGTGCTTTGGGAGTGCTGGTCCAAGGGCGTTAATGGACATTTTTTTTTT [CoV2-RBD-1C-Biotin]", "values": [{"measurement": "Kd", "setting": "[1]", "value": 27, "unit": "nM"}, {"measurement": "Kd", "setting": "[2]", "value": 1.5, "unit": "nM"}]}, {"sequence": "TTTTTTTTTTATCCAGAGTGACGCAGCACTGCGTAGGCGCGGCCAATGTGTAGGATTGCTCAGGTCTGCTGGACACGGTGGCTTAGT [Biotin-CoV2-RBD-3]", "values": [{"measurement": "Kd", "setting": "[1]", "value": 40, "unit": "nM"}, {"measurement": "Kd", "setting": "[2]", "value": 1.4, "unit": "nM"}]}, {"sequence": "TTTTTTTTTTATCCAGAGTGACGCAGCAGGACTGCTTAGGATTGCGAAGCTGAGGAGCTCCCCCGCCTTGGACACGGTGGCTTAGT [Biotin-CoV2-RBD-5]", "values": [{"measurement": "Kd", "setting": "[1]", "value": 22, "unit": "nM"}]}, {"sequence": "TTTTTTTTTTATCCAGAGTGACGCAGCAGTAGGGGGATTGGCTCCAGGGCCTGGCTGACGGTTGCACGTGGACACGGTGGCTTAGT [Biotin-CoV2-RBD-6]", "values": [{"measurement": "Kd", "setting": "[1]", "value": 29, "unit": "nM"}, {"measurement": "Kd", "setting": "[2]", "value": 3.5, "unit": "nM"}]}, {"sequence": "TTTTTTTTTTATCCAGAGTGACGCAGCATCGAGTGGTGGGCTGGTCGGGTTTGGATTCCCTTAGATGCTGGACACGGTGGCTTAGT [Biotin-CoV2-RBD-2]", "values": [{"measurement": "Kd", "setting": "[1]", "value": 17, "unit": "nM"}]}, {"sequence": "TTTTTTTTTTATCCAGAGTGACGCAGCATTTCATCGGGTCCAAAAGGGGCTGCTCGGGATTGCGGATATGGACACGT [Biotin-CoV2-RBD-4]", "values": [{"measurement": "Kd", "setting": "[1]", "value": 18, "unit": "nM"}, {"measurement": "Kd", "setting": "[2]", "value": 14, "unit": "nM"}]}, {"sequence": "TTTTTTTTTTCAGCACCGACCTTGTGCTTTGGGAGTGCTGGTCCAAGGGCGTTAATGGACA [Biotin-CoV2-RBD-1C]", "values": [{"measurement": "Kd", "setting": "[1]", "value": 5.8, "unit": "nM"}, {"measurement": "Kd", "setting": "[2]", "value": 0.8, "unit": "nM"}]}]}
